Results as given in patent publication US20020197702A1.
* marks the point of attachment. AMC = Cc1cc(=O)oc2cc(N*)ccc12

Target: membrane-derived caspases
Assay: cell-based or functional assay

B1: DEVD-amc (Acetyl-Asp-Glu-Val-Asp-aminomethylcoumarin) (peptide)
peptide: Ac-DEVD-{AMC}
A Km for hydrolysis of DEVD-amc of 10 µM was found for B1 in this work.
